# B1: GST-p107 R1R2 [not stated] / B55α (PP2A regulatory subunit B55α), endogenous in U-2 OS cells [human (endogenous in U-2 OS)] (parent)
# chain 1: KVPTCEEVIFPNNFETGNGGNVQGHLPLMPMSPLMHPRVKEVRTDSGSLRRDMQPLSPISVHERYSSPTAGSAKRRLF
# chain 2: MAGAGGGNDIQWCFSQVKGAVDDDVAEADIISTVEFNHSGELLATGDKGGRVVIFQQEQENKIQSHSRGEYNVYSTFQSHEPEFDYLKSLEIEEKINKIRWLPQKNAAQFLLSTNDKTIKLWKISERDKRPEGYNLKEEDGRYRDPTTVTTLRVPVFRPMDLMVEASPRRIFANAHTYHINSISINSDYETYLSADDLRINLWHLEITDRSFNIVDIKPANMEELTEVITAAEFHPNSCNTFVYSSSKGTIRLCDMRASALCDRHSKLFEEPEDPSNRSFFSEIISSISDVKFSHSGRYMMTRDYLSVKIWDLNMENRPVETYQVHEYLRSKLCSLYENDCIFDKFECCWNGSDSVVMTGSYNNFFRMFDRNTKRDITLEASRENNKPRTVLKPRKVCASGKRKKDEISVDSLDFNKKILHTAWHPKENIIAVATTNNLYIFQDKVN
# Variants of: B1
# Assay: GST pull-down, western blot
# Settings: with B55α (PP2A regulatory subunit B55α), U2-OS lysates, triplicate, read off a plot
row,ratio to parent,Variant
1,0.57,chain 1 KVPTCEEVIFPNNFETGNGGNVQGHLPLMPMSPLMHPRVKEVRTDSGSLRRDMQPLSPISVHEAYSSPTAGSAKRRLF
